Data: US20240076386A1 (Pfizer, published 2024)

Columns and labels:
[1] = biological target: T1, human E-selectin, cell-surface expressed (human, UniProt P16581 22-610); assay: cell-based or functional assay
T1 sequence: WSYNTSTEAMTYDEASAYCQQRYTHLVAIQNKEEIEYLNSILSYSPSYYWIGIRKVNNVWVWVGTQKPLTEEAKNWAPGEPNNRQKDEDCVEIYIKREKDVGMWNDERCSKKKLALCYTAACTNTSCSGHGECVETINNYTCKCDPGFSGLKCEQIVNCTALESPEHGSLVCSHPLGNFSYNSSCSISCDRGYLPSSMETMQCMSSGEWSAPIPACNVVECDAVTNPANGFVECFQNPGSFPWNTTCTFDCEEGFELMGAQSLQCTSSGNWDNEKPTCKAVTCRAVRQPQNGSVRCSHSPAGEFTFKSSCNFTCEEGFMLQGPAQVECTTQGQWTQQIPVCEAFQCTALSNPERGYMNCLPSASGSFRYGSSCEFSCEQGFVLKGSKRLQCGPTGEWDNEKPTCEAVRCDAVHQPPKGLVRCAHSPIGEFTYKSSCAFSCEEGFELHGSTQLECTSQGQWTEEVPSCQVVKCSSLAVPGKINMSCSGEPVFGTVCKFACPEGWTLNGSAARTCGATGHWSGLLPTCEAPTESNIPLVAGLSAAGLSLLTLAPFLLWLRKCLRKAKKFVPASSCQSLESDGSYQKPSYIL

[2] = biological target: T2, cynomolgus monkey E-selectin, cell-surface expressed (cynomolgus monkey, UniProt P16581 22-610 (human entry)); assay: cell-based or functional assay
T2 chain: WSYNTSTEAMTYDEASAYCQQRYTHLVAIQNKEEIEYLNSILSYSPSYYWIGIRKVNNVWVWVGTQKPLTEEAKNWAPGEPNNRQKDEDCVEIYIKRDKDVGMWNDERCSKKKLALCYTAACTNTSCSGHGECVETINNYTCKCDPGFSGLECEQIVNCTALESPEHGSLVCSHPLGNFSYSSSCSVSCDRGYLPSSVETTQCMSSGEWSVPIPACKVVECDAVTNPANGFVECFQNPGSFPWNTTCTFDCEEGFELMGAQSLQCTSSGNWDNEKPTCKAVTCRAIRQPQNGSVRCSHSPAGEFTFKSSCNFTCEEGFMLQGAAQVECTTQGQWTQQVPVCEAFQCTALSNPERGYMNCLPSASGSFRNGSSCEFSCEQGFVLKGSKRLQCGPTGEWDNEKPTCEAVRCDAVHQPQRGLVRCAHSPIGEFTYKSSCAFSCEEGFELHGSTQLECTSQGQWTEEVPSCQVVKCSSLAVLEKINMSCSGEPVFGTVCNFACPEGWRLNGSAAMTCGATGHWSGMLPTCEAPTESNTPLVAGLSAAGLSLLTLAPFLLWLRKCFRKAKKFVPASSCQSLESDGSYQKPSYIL

B1: optimized anti-E-selectin antibody 1444 (antibody, human IgG1, kappa, V domains shown)
VH: EVQLVESGGGLVQPGGSLRLSCAASGYAIRSAYMHWVRQAPGKGLEWVARIDPANGNTIYVDSVTGRFTISADNAKNSAYLQMNSLRAEDTAVYYCAMDLYSTSEYWGQGTLVTVSS
VL: DIQMTQSPSSLSASVGDRVTITCKTSQNIERYLNWYQQKPGKAPKLLIYAASSLQSGVPSRFSGSGSGTDFTLTISSLQPEDFATYFCLQDNAWPLTFGQGTKVEIKR
notes: effector-null human IgG1, kappa
With B1 the “Flow adhesion neutralization of HL-60 cells, CHO cells, human E-selectin, IC50” value [1] was 4.25 to 4.56 nM, the “Neutralization of Human Neutrophils, CHO cells, human E-selectin, flow, IC50” value [1] was 2.87 to 4.65 nM and the “Static adhesion neutralization of HL-60 cells, CHO cells, human E-selectin, IC50” value [1] was 3.36 to 4.7 nM. The “Flow adhesion neutralization of HL-60 cells, CHO cells, cynomolgus monkey E-selectin, IC50” value [2] was 4.32 to 4.35 nM, the “Neutralization of Human Neutrophils, CHO cells, cynomolgus E-selectin, flow, IC50” value [2] was 9.45 to 16.3 nM and the “Static adhesion neutralization of HL-60 cells, CHO cells, cynomolgus monkey E-selectin, IC50” value [2] was 3.84 nM.
